What was measured:
4H481-AA = target: T1, 4H481-AA; assay: two-hybrid library CCmax; details: mean of both orientations;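 note: natural log of median RNA to DNA barcode read ratio; higher means stronger binding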
T1 chain: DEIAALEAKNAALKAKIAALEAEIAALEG

4H3605-AA = target: T2, 4H3605-AA; assay: two-hybrid library CCmax; details: mean of both orientations;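 note: natural log of median RNA to DNA barcode read ratio; higher means stronger binding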
T2 chain: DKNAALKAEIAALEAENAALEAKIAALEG

4H2238-AA = target: T3, 4H2238-AA; assay: two-hybrid library CCmax; details: mean of both orientations;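 note: natural log of median RNA to DNA barcode read ratio; higher means stronger binding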
T3 chain: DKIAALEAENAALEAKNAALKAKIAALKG

4H55-AA = target: T4, 4H55-AA; assay: two-hybrid library CCmax;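 note: natural log of median RNA to DNA barcode read ratio; higher means stronger binding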
T4 chain: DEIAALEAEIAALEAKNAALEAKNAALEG

4H2614-AA = target: T5, 4H2614-AA; assay: two-hybrid library CCmax; details: mean of both orientations;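 note: natural log of median RNA to DNA barcode read ratio; higher means stronger binding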
T5 chain: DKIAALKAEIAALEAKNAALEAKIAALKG

4H175-AA = target: T6, 4H175-AA; assay: two-hybrid library CCmax;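 note: natural log of median RNA to DNA barcode read ratio; higher means stronger binding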
T6 chain: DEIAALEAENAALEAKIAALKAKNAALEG

4H3922-AA = target: T7, 4H3922-AA; assay: two-hybrid library CCmax; details: mean of both orientations
T7 chain: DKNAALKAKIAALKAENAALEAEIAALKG

4H369-AA = target: T8, 4H369-AA; assay: two-hybrid library CCmax; details: mean of both orientations
T8 chain: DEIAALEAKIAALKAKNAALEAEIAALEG

4H2726-AA = target: T9, 4H2726-AA; assay: two-hybrid library CCmax; details: mean of both orientations
T9 chain: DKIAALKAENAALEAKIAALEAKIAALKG

4H3664-AA = target: T10, 4H3664-AA; assay: two-hybrid library CCmax; details: mean of both orientations
T10 chain: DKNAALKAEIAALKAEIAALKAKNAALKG

4H2935-AA = target: T11, 4H2935-AA; assay: two-hybrid library CCmax; details: mean of both orientations
T11 chain: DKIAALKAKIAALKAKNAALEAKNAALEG

4H2608-AA = target: T12, 4H2608-AA; assay: two-hybrid library CCmax; details: mean of both orientations
T12 chain: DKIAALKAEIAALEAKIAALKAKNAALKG

4H4033-AA = target: T13, 4H4033-AA; assay: two-hybrid library CCmax; details: mean of both orientations
T13 chain: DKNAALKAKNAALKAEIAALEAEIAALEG

4H2513-AA = target: T14, 4H2513-AA; assay: two-hybrid library CCmax; details: mean of both orientations
T14 chain: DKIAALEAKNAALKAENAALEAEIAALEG

4H2536-AA = target: T15, 4H2536-AA; assay: two-hybrid library CCmax; details: mean of both orientations
T15 chain: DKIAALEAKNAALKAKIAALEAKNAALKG

4H327-AA = target: T16, 4H327-AA; assay: two-hybrid library CCmax; details: mean of both orientations
T16 chain: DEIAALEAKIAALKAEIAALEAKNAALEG

4H662-AA = target: T17, 4H662-AA; assay: two-hybrid library CCmax; details: mean of both orientations
T17 chain: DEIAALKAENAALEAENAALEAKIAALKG

4H1405-AA = target: T18, 4H1405-AA; assay: two-hybrid library CCmax
T18 chain: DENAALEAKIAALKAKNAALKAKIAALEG

4H2211-AA = target: T19, 4H2211-AA; assay: two-hybrid library CCmax; details: mean of both orientations
T19 chain: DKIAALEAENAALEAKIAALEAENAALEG

4H3625-AA = target: T20, 4H3625-AA; assay: two-hybrid library CCmax; details: mean of both orientations
T20 chain: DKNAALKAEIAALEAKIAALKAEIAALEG

O4-bS = target: T21, O4-bS; assay: two-hybrid library CCNG1
T21 chain: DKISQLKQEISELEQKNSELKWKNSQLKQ

P8A-bN = target: T22, P8A-bN; assay: two-hybrid library CCNG1
T22 chain: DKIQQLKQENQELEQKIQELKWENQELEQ

O6-bS = target: T23, O6-bS; assay: two-hybrid library CCNG1
T23 chain: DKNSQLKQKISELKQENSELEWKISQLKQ

O7-bS = target: T24, O7-bS; assay: two-hybrid library CCNG1
T24 chain: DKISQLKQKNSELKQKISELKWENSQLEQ

O5-bS = target: T25, O5-bS; assay: two-hybrid library CCNG1
T25 chain: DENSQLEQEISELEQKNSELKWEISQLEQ

O8-bS = target: T26, O8-bS; assay: two-hybrid library CCNG1
T26 chain: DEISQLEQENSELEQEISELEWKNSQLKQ

O2-bS = target: T27, O2-bS; assay: two-hybrid library CCNG1
T27 chain: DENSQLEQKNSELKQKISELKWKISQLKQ

O16-bS = target: T28, O16-bS; assay: two-hybrid library CCNG1
T28 chain: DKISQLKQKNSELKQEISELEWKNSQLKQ

O14-bS = target: T29, O14-bS; assay: two-hybrid library CCNG1
T29 chain: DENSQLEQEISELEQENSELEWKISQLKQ

O3-bS = target: T30, O3-bS; assay: two-hybrid library CCNG1
T30 chain: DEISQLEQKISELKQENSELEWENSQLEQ

P2bH1 = target: T31, P2bH1; assay: two-hybrid library CCNG1
T31 chain: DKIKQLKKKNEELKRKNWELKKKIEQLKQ

P4bH1 = target: T32, P4bH1; assay: two-hybrid library CCNG1
T32 chain: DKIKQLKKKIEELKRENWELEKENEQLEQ

P7bH1 = target: T33, P7bH1; assay: two-hybrid library CCNG1
T33 chain: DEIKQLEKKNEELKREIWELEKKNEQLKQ

P6bH1 = target: T34, P6bH1; assay: two-hybrid library CCNG1
T34 chain: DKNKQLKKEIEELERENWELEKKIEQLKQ

P3bH1 = target: T35, P3bH1; assay: two-hybrid library CCNG1
T35 chain: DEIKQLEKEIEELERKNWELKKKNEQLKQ

P5bH1 = target: T36, P5bH1; assay: two-hybrid library CCNG1
T36 chain: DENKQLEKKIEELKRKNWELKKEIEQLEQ

P8bH1 = target: T37, P8bH1; assay: two-hybrid library CCNG1
T37 chain: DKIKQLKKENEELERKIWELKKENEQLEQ

P9bH1 = target: T38, P9bH1; assay: two-hybrid library CCNG1
T38 chain: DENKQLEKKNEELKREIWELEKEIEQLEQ

P1bH1 = target: T39, P1bH1; assay: two-hybrid library CCNG1
T39 chain: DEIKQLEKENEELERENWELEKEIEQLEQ

**Q.** With DENAALEAKIAALKAKNAALKAKIAALEG [4H1405-AA] as the binder, how does the interaction score (4H481-AA) read?
**A.** -0.893

**Q.** And the interaction score (4H3605-AA)?
**A.** 2.26

**Q.** What about the interaction score (4H2238-AA) of the same binder?
**A.** -1.22

**Q.** What about the interaction score (4H55-AA) of the same binder?
**A.** -1.42

**Q.** And the interaction score (4H2614-AA)?
**A.** 1.52

**Q.** And the interaction score (4H175-AA)?
**A.** 1.87

**Q.** And the interaction score (4H3922-AA)?
**A.** 0.997

**Q.** And the interaction score (4H369-AA)?
**A.** -0.585

**Q.** And the interaction score (4H2726-AA)?
**A.** 0.87

**Q.** And the interaction score (4H3664-AA)?
**A.** -1.67

**Q.** What about the interaction score (4H2935-AA) of the same binder?
**A.** -1.84

**Q.** What about the interaction score (4H2608-AA) of the same binder?
**A.** -0.735

**Q.** And the interaction score (4H4033-AA)?
**A.** -0.407

**Q.** What about the interaction score (4H2513-AA) of the same binder?
**A.** -1.52

**Q.** And the interaction score (4H2536-AA)?
**A.** -1.01

**Q.** And the interaction score (4H327-AA)?
**A.** -1.19

**Q.** And the interaction score (4H662-AA)?
**A.** 0.709

**Q.** And the interaction score (4H1405-AA)?
**A.** -1.08

**Q.** And the interaction score (4H2211-AA)?
**A.** 1.88

**Q.** And the interaction score (4H3625-AA)?
**A.** -1.11

**Q.** What does the source list for DENSQLEQEISELEQENSELEWKISQLKQ [O14-bS]?
**A.** interaction score (O4-bS): 0.126; interaction score (P8A-bN): -0.473; interaction score (O6-bS): 0.332; interaction score (O7-bS): -0.1; interaction score (O5-bS): -0.394; interaction score (O8-bS): -2.39; interaction score (O2-bS): -1.15; interaction score (O16-bS): 0.936; interaction score (O14-bS): -1.18; interaction score (O3-bS): -0.0513

**Q.** How did the interaction score (P2bH1) turn out when DEIKQLEKENEELERENWELEKEIEQLEQ [P1bH1] was run?
**A.** 1.17

**Q.** What about the interaction score (P4bH1) of the same binder?
**A.** -1.38

**Q.** What about the interaction score (P7bH1) of the same binder?
**A.** -0.809

**Q.** And the interaction score (P6bH1)?
**A.** -1.2

**Q.** What about the interaction score (P3bH1) of the same binder?
**A.** -1.08

**Q.** What about the interaction score (P5bH1) of the same binder?
**A.** -1.15

**Q.** And the interaction score (P8bH1)?
**A.** -0.757

**Q.** And the interaction score (P9bH1)?
**A.** -0.87

**Q.** What about the interaction score (P1bH1) of the same binder?
**A.** -0.717
